± gives the standard error. Variants at the floor of the assay were thinned out.
B1: glmS ribozyme (parent)
chain: AUAAAAGCGCCAGAACUACAGAAAUGUAGUUGACGAGGAGGAGGUUUAUCGAAUUUUCGGCGGAUGCCUCCAAA

How the values were obtained:
Conditions in all cases: with glucosamine-6-phosphate
glucosamine-6-phosphate [1] = variants of: B1; assay: self-cleavage kobs at 40 uM GlcN6P; higher = faster cleavage; RNA array
Method in brief: (§1)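 E. coli RNA polymerase transcribed barcoded ribozyme variants in situ on sequenced MiSeq chips, which were tracked via a hybridised Cy3 probe at 37 °C. Tiles were imaged over ~14 h after glucosamine-6-phosphate (40 μM to 10 mM) in HEPES/KCl/Mg(OAc)2 buffer was flowed in. Normalised per-tile medians were fit to one- or two-exponential decays for kobs, and kcat and KM came from weighted Michaelis–Menten fits.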

glucosamine-6-phosphate [2] = variants of: B1; assay: self-cleavage kobs at 160 uM GlcN6P; higher = faster cleavage; RNA array
Method in brief: as §1

glucosamine-6-phosphate [3] = variants of: B1; assay: self-cleavage kobs at 640 uM GlcN6P; higher = faster cleavage; RNA array
Method in brief: as §1

glucosamine-6-phosphate [4] = variants of: B1; assay: self-cleavage kobs at 2500 uM GlcN6P; higher = faster cleavage; RNA array
Method in brief: as §1

glucosamine-6-phosphate [5] = variants of: B1; assay: self-cleavage kobs at 10000 uM GlcN6P; higher = faster cleavage; RNA array
Method in brief: as §1

Variant | self-cleavage kobs at 40 uM GlcN6P (glucosamine-6-phosphate [1]) | self-cleavage kobs at 160 uM GlcN6P (glucosamine-6-phosphate [2]) | self-cleavage kobs at 640 uM GlcN6P (glucosamine-6-phosphate [3]) | self-cleavage kobs at 2500 uM GlcN6P (glucosamine-6-phosphate [4]) | self-cleavage kobs at 10000 uM GlcN6P (glucosamine-6-phosphate [5])
C34A U65G | < 1e-05 s⁻¹ | < 1e-05 s⁻¹ | < 1e-05 s⁻¹ | < 1e-05 s⁻¹ | < 1e-05 s⁻¹
U46C A53C U55A U56G G62C | < 1e-05 s⁻¹ |  |  |  | 
G63C C71U | < 1e-05 s⁻¹ | < 1e-05 s⁻¹ |  |  | < 1e-05 s⁻¹
A48U A64C | < 1e-05 s⁻¹ | < 1e-05 s⁻¹ | < 1e-05 s⁻¹ |  | 
G9A A39U G44A U55C | < 1e-05 s⁻¹ |  |  |  | < 1e-05 s⁻¹
G41C U45A U57A C61G | < 1e-05 s⁻¹ |  |  |  | < 1e-05 s⁻¹
A33U U45G G51A | < 1e-05 s⁻¹ |  |  |  | < 1e-05 s⁻¹
G9U A64G | < 1e-05 s⁻¹ | < 1e-05 s⁻¹ |  |  | < 1e-05 s⁻¹
A14C A64G U65A C70A C71G | < 1e-05 s⁻¹ |  |  |  | < 1e-05 s⁻¹
G35A U54A | < 1e-05 s⁻¹ |  | < 1e-05 s⁻¹ | < 1e-05 s⁻¹ | 
A6U A48C C50U A52U C61U C67G C68G | < 1e-05 s⁻¹ |  |  |  | 
G41U G44U A64U | < 1e-05 s⁻¹ |  |  |  | < 1e-05 s⁻¹
C8U A14U G44U | < 1e-05 s⁻¹ |  |  |  | 
G29A A53U C58G | < 1e-05 s⁻¹ |  |  |  | 5.28e-05 ± 2.2e-05 s⁻¹
A15U G40U G51U C71U | < 1e-05 s⁻¹ |  |  |  | 
G7C A33U | < 1e-05 s⁻¹ | < 1e-05 s⁻¹ |  | < 1e-05 s⁻¹ | < 1e-05 s⁻¹
C8U A36C G41C | < 1e-05 s⁻¹ |  |  |  | 
G7C A39U | < 1e-05 s⁻¹ |  | < 1e-05 s⁻¹ |  | < 1e-05 s⁻¹
C10G U57G | < 1e-05 s⁻¹ |  | < 1e-05 s⁻¹ | < 1e-05 s⁻¹ | < 1e-05 s⁻¹
C10U C67U C70U | < 1e-05 s⁻¹ |  |  |  | < 1e-05 s⁻¹
G32U G40C C61U C67A | < 1e-05 s⁻¹ |  |  |  | 
G13A G44A U65A | < 1e-05 s⁻¹ |  |  |  | 
A14C G35U G43C | < 1e-05 s⁻¹ |  |  |  | 
G9C G59U | < 1e-05 s⁻¹ | < 1e-05 s⁻¹ | < 1e-05 s⁻¹ | < 1e-05 s⁻¹ | 
G7A U30A | < 1e-05 s⁻¹ | < 1e-05 s⁻¹ |  | < 1e-05 s⁻¹ | 
A12G G63U | < 1e-05 s⁻¹ | < 1e-05 s⁻¹ |  |  | < 1e-05 s⁻¹
G35C A52C | < 1e-05 s⁻¹ | < 1e-05 s⁻¹ | < 1e-05 s⁻¹ | < 1e-05 s⁻¹ | < 1e-05 s⁻¹
A6C U57G | < 1e-05 s⁻¹ |  | < 1e-05 s⁻¹ |  | 
